Measured values: paper PMC5651189

Molecular target: PKA regulatory subunit RIα/β (human (endogenous in SK-Br-3)) (UniProt P10644)
Experiment: proximity ligation

Chain of PKA regulatory subunit RIα/β (human (endogenous in SK-Br-3)) (P10644 whole entry): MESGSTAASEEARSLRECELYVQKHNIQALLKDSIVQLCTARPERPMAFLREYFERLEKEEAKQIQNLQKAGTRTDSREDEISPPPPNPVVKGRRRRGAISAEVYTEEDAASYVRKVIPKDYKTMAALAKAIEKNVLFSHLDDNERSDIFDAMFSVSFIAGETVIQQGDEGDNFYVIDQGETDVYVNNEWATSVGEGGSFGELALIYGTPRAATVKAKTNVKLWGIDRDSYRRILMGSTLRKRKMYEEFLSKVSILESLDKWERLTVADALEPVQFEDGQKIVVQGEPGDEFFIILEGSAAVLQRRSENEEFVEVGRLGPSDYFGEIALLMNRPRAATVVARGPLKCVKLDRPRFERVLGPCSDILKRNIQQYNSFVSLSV

| fold CICF in SK.tDp^T39A against SK.empty cells [fold] | fold CICF in SK.dDp against SK.empty and SK.tDp cells [fold] | Binder |
| --- | --- | --- |
| 3 | – | t-Darpp T39A phosphorylation mutant (natural protein) AYAPPSLKAVQRIAESHLQSISNLNENQASEEEDELGELRELGYPREEDEEEEEDDEEEEEEEDSQAEVLKVIRQSAGQKTTCGQGLEGPWERPPPLDESERDGGSEDQVEDPALSEPGEEPQRPSPSEPGT |
| – | 4 | Darpp-32 (dopamine- and cAMP-regulated phosphoprotein of 32 kDa) (natural protein) MDPKDRKKIQFSVPAPPSQLDPRQVEMIRRRRPTPAMLFRLSEHSSPEEEASPHQRASGEGHHLKSKRPNPCAYTPPSLKAVQRIAESHLQSISNLNENQASEEEDELGELRELGYPREEDEEEEEDDEEEEEEEDSQAEVLKVIRQSAGQKTTCGQGLEGPWERPPPLDESERDGGSEDQVEDPALSEPGEEPQRPSPSEPGT |
